Key:
mouse DEC205 (mouse) = mouse DEC205 (mouse) (UniProt Q60767); assay: cell-based or functional assay
[1] = target: DEC205 (CD205, LY75), mouse, surface-expressed (Mus musculus, UniProt Q60767 Q60767:28-1723); assay: flow; apparent; A20.Kb/mDEC205 cells; RPMI + 1 mg/mL ssDNA, 37 C, 15 min; one-site fit; settings: tags: full-length, stably expressed on CHO (CHO/mDEC205) or A20.Kb/mDEC205 cells; label: Alexa Fluor 488 (5'); Mfold-predicted stem-loop with conserved UUCAUAA
Protocol: The minimized aptamer, min.2 (FIG. 3a), was chemically synthesized bearing a 3′ inverted dT for added serum stability and a 5′ thiol to facilitate subsequent chemical conjugations. When labeled with Alexa Fluor 488, this chemically synthesized aptamer performed as well as constructs produced by transcription (data not shown). Direct labeling of min.2 also allowed us to measure the apparent dissociation constant of this aptamer for cell-surface mDEC205 on A20 cells (23±6 nM; FIG. 3b). The specificity of Clone 1 and high affinity of its minimized form, min.2, constitute a promising basis for using this aptamer for targeted antigen delivery.
mDEC205 Cell Surface Binding Assay: A20.Kb cells or A20.Kb.mDEC205 cells which are engineered to express higher amounts of mDEC205 were washed with RPMI, resuspended at 1×10⁵ cells in 100 μL RPMI supplemented with 1 mg/mL ssDNA, and stored on ice while Alexa Fluor 488-conjugated min.2 and Alexa Fluor 488-conjugated cntrl.36 were prepared as described previously. After addition of refolded RNA to cells, the RNA-cell mixture was incubated for 15 minutes at 37° C., washed with and resuspended in flow cytometry buffer, and analyzed by flow cytometry. […]

Chain of DEC205 (CD205, LY75), mouse, surface-expressed (Q60767 28-1723, one chain of several): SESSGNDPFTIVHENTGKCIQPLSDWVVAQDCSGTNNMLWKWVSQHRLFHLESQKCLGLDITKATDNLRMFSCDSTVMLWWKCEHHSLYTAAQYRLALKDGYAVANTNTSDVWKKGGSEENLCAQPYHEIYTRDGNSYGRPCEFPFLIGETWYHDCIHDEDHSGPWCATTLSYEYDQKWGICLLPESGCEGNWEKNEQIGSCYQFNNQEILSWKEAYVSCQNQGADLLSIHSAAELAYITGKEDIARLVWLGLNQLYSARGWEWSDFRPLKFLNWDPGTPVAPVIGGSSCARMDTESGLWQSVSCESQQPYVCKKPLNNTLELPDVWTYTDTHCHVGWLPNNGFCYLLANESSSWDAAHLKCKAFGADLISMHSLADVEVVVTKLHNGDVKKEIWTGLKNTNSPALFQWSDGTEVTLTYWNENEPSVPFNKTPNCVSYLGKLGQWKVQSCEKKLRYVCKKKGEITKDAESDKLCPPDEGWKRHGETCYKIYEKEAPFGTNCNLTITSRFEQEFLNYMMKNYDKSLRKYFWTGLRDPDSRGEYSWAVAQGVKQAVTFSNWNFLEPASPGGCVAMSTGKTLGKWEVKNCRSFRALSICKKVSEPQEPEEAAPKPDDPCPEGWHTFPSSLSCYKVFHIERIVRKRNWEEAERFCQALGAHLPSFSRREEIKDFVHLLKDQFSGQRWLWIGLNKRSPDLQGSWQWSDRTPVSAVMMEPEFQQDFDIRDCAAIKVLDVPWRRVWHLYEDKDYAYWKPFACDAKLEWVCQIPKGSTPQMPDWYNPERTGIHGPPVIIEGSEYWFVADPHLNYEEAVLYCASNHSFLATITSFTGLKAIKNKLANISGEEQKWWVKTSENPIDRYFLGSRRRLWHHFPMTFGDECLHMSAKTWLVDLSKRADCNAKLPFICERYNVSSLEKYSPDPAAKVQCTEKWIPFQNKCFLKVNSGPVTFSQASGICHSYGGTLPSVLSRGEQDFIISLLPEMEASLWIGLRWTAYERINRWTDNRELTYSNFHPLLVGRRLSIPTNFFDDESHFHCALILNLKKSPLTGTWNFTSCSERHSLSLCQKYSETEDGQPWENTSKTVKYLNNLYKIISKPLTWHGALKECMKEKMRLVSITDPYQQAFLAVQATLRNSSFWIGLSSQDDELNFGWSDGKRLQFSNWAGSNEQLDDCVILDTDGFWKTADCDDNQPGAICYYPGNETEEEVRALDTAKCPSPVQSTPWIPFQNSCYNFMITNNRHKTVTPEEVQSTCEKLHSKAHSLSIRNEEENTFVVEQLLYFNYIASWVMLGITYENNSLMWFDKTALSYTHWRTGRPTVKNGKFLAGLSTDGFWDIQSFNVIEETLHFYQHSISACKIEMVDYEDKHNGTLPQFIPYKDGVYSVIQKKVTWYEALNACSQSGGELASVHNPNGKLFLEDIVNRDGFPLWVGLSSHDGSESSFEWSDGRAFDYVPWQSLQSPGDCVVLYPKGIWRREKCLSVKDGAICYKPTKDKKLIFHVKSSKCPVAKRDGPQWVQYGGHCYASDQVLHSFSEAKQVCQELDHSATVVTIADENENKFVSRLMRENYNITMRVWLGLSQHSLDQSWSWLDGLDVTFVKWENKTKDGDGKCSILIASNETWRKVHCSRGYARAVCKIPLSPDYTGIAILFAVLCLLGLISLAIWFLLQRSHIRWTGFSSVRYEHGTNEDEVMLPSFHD
Chain of mouse DEC205 (mouse) (Q60767 28-1723): as the sequence (Q60767 28-1723, one chain of several) above

Row | Molecule | OT-I cell proliferation (CFSE dilution) after two days with antigen-treated CD11c+ splenocytes (mouse DEC205 (mouse)) [%] | Kd [1] [nM]
1 | NLDC145:OVA, recombinant fusion of OVA and anti-mDEC205 antibody clone NLDC145 | > 80 | 
2 | GGGAGGUGUGUUAGCACACGAUUCAUAAUCAGCUACCCUCCC (ssRNA, 2'-F pyrimidines; 3' idT; 5' thiol C6) [min.2] |  | 23
